Molecular target: BTN3A expressed at the cell surface (human), O00481
Test: cell-based or functional assay

BTN3A expressed at the cell surface (human), O00481, sequence (O00481 30-513): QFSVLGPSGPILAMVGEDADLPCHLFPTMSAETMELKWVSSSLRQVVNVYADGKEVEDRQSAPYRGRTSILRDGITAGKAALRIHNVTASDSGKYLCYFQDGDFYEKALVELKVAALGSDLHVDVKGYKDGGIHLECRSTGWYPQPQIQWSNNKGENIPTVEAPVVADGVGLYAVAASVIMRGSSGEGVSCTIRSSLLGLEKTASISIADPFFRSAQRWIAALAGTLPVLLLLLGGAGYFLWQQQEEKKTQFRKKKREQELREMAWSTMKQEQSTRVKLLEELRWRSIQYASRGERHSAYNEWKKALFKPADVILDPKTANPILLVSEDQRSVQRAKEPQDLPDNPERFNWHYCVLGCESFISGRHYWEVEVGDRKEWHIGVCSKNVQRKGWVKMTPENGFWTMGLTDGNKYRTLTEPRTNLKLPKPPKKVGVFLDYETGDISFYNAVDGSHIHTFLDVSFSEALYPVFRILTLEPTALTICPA

Binder | Jurkat-Vy9Vo2 TCR MOP activation at 0.5 nM (fold-change to medium) | Jurkat-Vy9Vo2 TCR MOP activation at 5 nM (fold-change to medium)
bsAb068 (bispecific antibody) heavy: QVQLVQSGVEVKKPGASVKVSCKASGYTFTNYYMYWVRQAPGQGLEWMGGINPSNGGTNFNEKFKNRVTLTTDSSTTTAYMELKSLQFDDTAVYYCARRDYRFDMGFDYWGQGTTVTVSSASTKGPSVFPLAPSSKSTSGGTAALGCLVKDYFPEPVTVSWNSGALTSGVHTFPAVLQSSGLYSLSSVVTVPSSSLGTQTYICNVNHKPSNTKVDKRVEPKSCDKTHTCPPCPAPEFEGGPSVFLFPPKPKDTLMISRTPEVTCVVVDVSHEDPEVKFNWYVDGVEVHNAKTKPREEQYNSTYRVVSVLTVLHQDWLNGKEYKCKVSNKALPASIEKTISKAKGQPREPQVYTLPPSREEMTKNQVSLTCLVKGFYPSDIAVEWESNGQPENNYKTTPPVLDSDGSFFLYSKLTVDKSRWQQGNVFSCSVMHEALHNHYTQKSLSLSPG light: not shown | 1.4 | 1.6
bsAb002 (bispecific antibody) heavy: QVQLVQSGVEVKKPGASVKVSCKASGYTFTNYYMYWVRQAPGQGLEWMGGINPSNGGTNFNEKFKNRVTLTTDSSTTTAYMELKSLQFDDTAVYYCARRDYRFDMGFDYWGQGTTVTVSSASTKGPSVFPLAPSSKSTSGGTAALGCLVKDYFPEPVTVSWNSGALTSGVHTFPAVLQSSGLYSLSSVVTVPSSSLGTQTYICNVNHKPSNTKVDKRVEPKSCDKTHTCPPCPAPEFEGGPSVFLFPPKPKDTLMISRTPEVTCVVVDVSHEDPEVKFNWYVDGVEVHNAKTKPREEQYNSTYRVVSVLTVLHQDWLNGKEYKCKVSNKALPASIEKTISKAKGQPREPQVYTLPPSREEMTKNQVSLTCLVKGFYPSDIAVEWESNGQPENNYKTTPPVLDSDGSFFLYSKLTVDKSRWQQGNVFSCSVMHEALHNHYTQKSLSLSPGGGGGSGGGGSGGGGSGGGGSQVQLVQSGAEVKKPGASVKLSCKASGYIFTRYYMYWVKQRPGQGLEWIGEINPNNGGTKFNEKFKNRATLTVDKSISTAYMELSRLRSDDTAVYYCSREDDYDGTPFAMDYWGQGTLVTVSSGGGGSGGGGSGGGGSGGGGSDIQMTQSPSSLSASVGDRVTITCHASQNINVWLSWYQQKPGKAPKLLIYKASNLHTGVPSRFTGSGSGTDFTFTISSLQPEDIATYYCQQGQTYPYTFGQGTKLEIK light: EIVLTQSPATLSLSPGERATLSCRASKGVSTSGYSYLHWYQQKPGQAPRLLIYLASYLESGVPARFSGSGSGTDFTLTISSLEPEDFAVYYCQHSRDLPLTFGGGTKVEIKRTVAAPSVFIFPPSDEQLKSGTASVVCLLNNFYPREAKVQWKVDNALQSGNSQESVTEQDSKDSTYSLSSTLTLSKADYEKHKVYACEVTHQGLSSPVTKSFNRGEC | 1 | 1
bsAb006 (bispecific antibody) heavy: QVQLVQSGVEVKKPGASVKVSCKASGYTFTNYYMYWVRQAPGQGLEWMGGINPSNGGTNFNEKFKNRVTLTTDSSTTTAYMELKSLQFDDTAVYYCARRDYRFDMGFDYWGQGTTVTVSSASTKGPSVFPLAPSSKSTSGGTAALGCLVKDYFPEPVTVSWNSGALTSGVHTFPAVLQSSGLYSLSSVVTVPSSSLGTQTYICNVNHKPSNTKVDKRVEPKSCDKTHTCPPCPAPEFEGGPSVFLFPPKPKDTLMISRTPEVTCVVVDVSHEDPEVKFNWYVDGVEVHNAKTKPREEQYNSTYRVVSVLTVLHQDWLNGKEYKCKVSNKALPASIEKTISKAKGQPREPQVYTLPPSREEMTKNQVSLTCLVKGFYPSDIAVEWESNGQPENNYKTTPPVLDSDGSFFLYSKLTVDKSRWQQGNVFSCSVMHEALHNHYTQKSLSLSPGGGGGSGGGGSGGGGSGGGGSDIQMTQSPSSLSASVGDRVTITCHASQNINVWLSWYQQKPGKAPKLLIYKASNLHTGVPSRFTGSGSGTDFTFTISSLQPEDIATYYCQQGQTYPYTFGQGTKLEIKGGGGSGGGGSGGGGSGGGGSQVQLVQSGAEVKKPGASVKLSCKASGYIFTRYYMYWVKQRPGQGLEWIGEINPNNGGTKFNEKFKNRATLTVDKSISTAYMELSRLRSDDTAVYYCSREDDYDGTPFAMDYWGQGTLVTVSS light: EIVLTQSPATLSLSPGERATLSCRASKGVSTSGYSYLHWYQQKPGQAPRLLIYLASYLESGVPARFSGSGSGTDFTLTISSLEPEDFAVYYCQHSRDLPLTFGGGTKVEIKRTVAAPSVFIFPPSDEQLKSGTASVVCLLNNFYPREAKVQWKVDNALQSGNSQESVTEQDSKDSTYSLSSTLTLSKADYEKHKVYACEVTHQGLSSPVTKSFNRGEC | 1 | 1
bsAb009 (bispecific antibody) heavy: QVQLVQSGVEVKKPGASVKVSCKASGYTFTNYYMYWVRQAPGQGLEWMGGINPSNGGTNFNEKFKNRVTLTTDSSTTTAYMELKSLQFDDTAVYYCARRDYRFDMGFDYWGQGTTVTVSSASTKGPSVFPLAPSSKSTSGGTAALGCLVKDYFPEPVTVSWNSGALTSGVHTFPAVLQSSGLYSLSSVVTVPSSSLGTQTYICNVNHKPSNTKVDKRVEPKSCDKTHTCPPCPAPEFEGGPSVFLFPPKPKDTLMISRTPEVTCVVVDVSHEDPEVKFNWYVDGVEVHNAKTKPREEQYNSTYRVVSVLTVLHQDWLNGKEYKCKVSNKALPASIEKTISKAKGQPREPQVYTLPPSREEMTKNQVSLTCLVKGFYPSDIAVEWESNGQPENNYKTTPPVLDSDGSFFLYSKLTVDKSRWQQGNVFSCSVMHEALHNHYTQKSLSLSPG light: EIVLTQSPATLSLSPGERATLSCRASKGVSTSGYSYLHWYQQKPGQAPRLLIYLASYLESGVPARFSGSGSGTDFTLTISSLEPEDFAVYYCQHSRDLPLTFGGGTKVEIKRTVAAPSVFIFPPSDEQLKSGTASVVCLLNNFYPREAKVQWKVDNALQSGNSQESVTEQDSKDSTYSLSSTLTLSKADYEKHKVYACEVTHQGLSSPVTKSFNRGECGGGGSGGGGSGGGGSGGGGSQVQLVQSGAEVKKPGASVKLSCKASGYIFTRYYMYWVKQRPGQGLEWIGEINPNNGGTKFNEKFKNRATLTVDKSISTAYMELSRLRSDDTAVYYCSREDDYDGTPFAMDYWGQGTLVTVSSGGGGSGGGGSGGGGSGGGGSDIQMTQSPSSLSASVGDRVTITCHASQNINVWLSWYQQKPGKAPKLLIYKASNLHTGVPSRFTGSGSGTDFTFTISSLQPEDIATYYCQQGQTYPYTFGQGTKLEIK | 1 | 0.8
bsAb021 (bispecific antibody) heavy: QVQLVQSGAEVKKPGASVKLSCKASGYIFTRYYMYWVKQRPGQGLEWIGEINPNNGGTKFNEKFKNRATLTVDKSISTAYMELSRLRSDDTAVYYCSREDDYDGTPFAMDYWGQGTLVTVSSGGGGSGGGGSGGGGSGGGGSDIQMTQSPSSLSASVGDRVTITCHASQNINVWLSWYQQKPGKAPKLLIYKASNLHTGVPSRFTGSGSGTDFTFTISSLQPEDIATYYCQQGQTYPYTFGQGTKLEIKGGGGSGGGGSGGGGSGGGGSQVQLVQSGVEVKKPGASVKVSCKASGYTFTNYYMYWVRQAPGQGLEWMGGINPSNGGTNFNEKFKNRVTLTTDSSTTTAYMELKSLQFDDTAVYYCARRDYRFDMGFDYWGQGTTVTVSSASTKGPSVFPLAPSSKSTSGGTAALGCLVKDYFPEPVTVSWNSGALTSGVHTFPAVLQSSGLYSLSSVVTVPSSSLGTQTYICNVNHKPSNTKVDKRVEPKSCDKTHTCPPCPAPEFEGGPSVFLFPPKPKDTLMISRTPEVTCVVVDVSHEDPEVKFNWYVDGVEVHNAKTKPREEQYNSTYRVVSVLTVLHQDWLNGKEYKCKVSNKALPASIEKTISKAKGQPREPQVYTLPPSREEMTKNQVSLTCLVKGFYPSDIAVEWESNGQPENNYKTTPPVLDSDGSFFLYSKLTVDKSRWQQGNVFSCSVMHEALHNHYTQKSLSLSPG light: EIVLTQSPATLSLSPGERATLSCRASKGVSTSGYSYLHWYQQKPGQAPRLLIYLASYLESGVPARFSGSGSGTDFTLTISSLEPEDFAVYYCQHSRDLPLTFGGGTKVEIKRTVAAPSVFIFPPSDEQLKSGTASVVCLLNNFYPREAKVQWKVDNALQSGNSQESVTEQDSKDSTYSLSSTLTLSKADYEKHKVYACEVTHQGLSSPVTKSFNRGEC | 1.6 | 1.5
bsAb034 (bispecific antibody, not shown: small tags and cut ends; a dimerising Fc or GST) heavy (part 1 of 2): QVQLVQSGVEVKKPGASVKVSCKASGYTFTNYYMYWVRQAPGQGLEWMGGINPSNGGTNFNEKFKNRVTLTTDSSTTTAYMELKSLQFDDTAVYYCARRDYRFDMGFDYWGQGTTVTVSS heavy (part 2 of 2): GGGGSGGGGSGGGGSGGGGSQVQLVQSGAEVKKPGASVKLSCKASGYIFTRYYMYWVKQRPGQGLEWIGEINPNNGGTKFNEKFKNRATLTVDKSISTAYMELSRLRSDDTAVYYCSREDDYDGTPFAMDYWGQGTLVTVSSGGGGSGGGGSGGGGSGGGGSDIQMTQSPSSLSASVGDRVTITCHASQNINVWLSWYQQKPGKAPKLLIYKASNLHTGVPSRFTGSGSGTDFTFTISSLQPEDIATYYCQQGQTYPYTFGQGTKLEIK heavy: GGGGSGGGGSGGGGSGGGGSQVQLVQSGAEVKKPGASVKLSCKASGYIFTRYYMYWVKQRPGQGLEWIGEINPNNGGTKFNEKFKNRATLTVDKSISTAYMELSRLRSDDTAVYYCSREDDYDGTPFAMDYWGQGTLVTVSSGGGGSGGGGSGGGGSGGGGSDIQMTQSPSSLSASVGDRVTITCHASQNINVWLSWYQQKPGKAPKLLIYKASNLHTGVPSRFTGSGSGTDFTFTISSLQPEDIATYYCQQGQTYPYTFGQGTKLEIK light: EIVLTQSPATLSLSPGERATLSCRASKGVSTSGYSYLHWYQQKPGQAPRLLIYLASYLESGVPARFSGSGSGTDFTLTISSLEPEDFAVYYCQHSRDLPLTFGGGTKVEIKRTVAAPSVFIFPPSDEQLKSGTASVVCLLNNFYPREAKVQWKVDNALQSGNSQESVTEQDSKDSTYSLSSTLTLSKADYEKHKVYACEVTHQGLSSPVTKSFNRGEC | 0.9 | 1.1
bsAb037 (bispecific antibody, not shown: small tags and cut ends; a dimerising Fc or GST) heavy 1: QVQLVQSGVEVKKPGASVKVSCKASGYTFTNYYMYWVRQAPGQGLEWMGGINPSNGGTNFNEKFKNRVTLTTDSSTTTAYMELKSLQFDDTAVYYCARRDYRFDMGFDYWGQGTTVTVSS heavy 2: DIQMTQSPSSLSASVGDRVTITCHASQNINVWLSWYQQKPGKAPKLLIYKASNLHTGVPSRFTGSGSGTDFTFTISSLQPEDIATYYCQQGQTYPYTFGQGTKLEIKGGGGSGGGGSGGGGSGGGGSQVQLVQSGAEVKKPGASVKLSCKASGYIFTRYYMYWVKQRPGQGLEWIGEINPNNGGTKFNEKFKNRATLTVDKSISTAYMELSRLRSDDTAVYYCSREDDYDGTPFAMDYWGQGTLVTVSSGGGGSGGGGSGGGGSGGGGS light: EIVLTQSPATLSLSPGERATLSCRASKGVSTSGYSYLHWYQQKPGQAPRLLIYLASYLESGVPARFSGSGSGTDFTLTISSLEPEDFAVYYCQHSRDLPLTFGGGTKVEIKRTVAAPSVFIFPPSDEQLKSGTASVVCLLNNFYPREAKVQWKVDNALQSGNSQESVTEQDSKDSTYSLSSTLTLSKADYEKHKVYACEVTHQGLSSPVTKSFNRGECGGGGSGGGGSGGGGSGGGGSQVQLVQSGAEVKKPGASVKLSCKASGYIFTRYYMYWVKQRPGQGLEWIGEINPNNGGTKFNEKFKNRATLTVDKSISTAYMELSRLRSDDTAVYYCSREDDYDGTPFAMDYWGQGTLVTVSSGGGGSGGGGSGGGGSGGGGSDIQMTQSPSSLSASVGDRVTITCHASQNINVWLSWYQQKPGKAPKLLIYKASNLHTGVPSRFTGSGSGTDFTFTISSLQPEDIATYYCQQGQTYPYTFGQGTKLEIK | 1.2 | 1.7

Source: US20260265379A1
